Target: T1, GST-ZW10 (full length GST-tagged human ZW10) (human, UniProt O43264 1-779)
T1 sequence (looked up): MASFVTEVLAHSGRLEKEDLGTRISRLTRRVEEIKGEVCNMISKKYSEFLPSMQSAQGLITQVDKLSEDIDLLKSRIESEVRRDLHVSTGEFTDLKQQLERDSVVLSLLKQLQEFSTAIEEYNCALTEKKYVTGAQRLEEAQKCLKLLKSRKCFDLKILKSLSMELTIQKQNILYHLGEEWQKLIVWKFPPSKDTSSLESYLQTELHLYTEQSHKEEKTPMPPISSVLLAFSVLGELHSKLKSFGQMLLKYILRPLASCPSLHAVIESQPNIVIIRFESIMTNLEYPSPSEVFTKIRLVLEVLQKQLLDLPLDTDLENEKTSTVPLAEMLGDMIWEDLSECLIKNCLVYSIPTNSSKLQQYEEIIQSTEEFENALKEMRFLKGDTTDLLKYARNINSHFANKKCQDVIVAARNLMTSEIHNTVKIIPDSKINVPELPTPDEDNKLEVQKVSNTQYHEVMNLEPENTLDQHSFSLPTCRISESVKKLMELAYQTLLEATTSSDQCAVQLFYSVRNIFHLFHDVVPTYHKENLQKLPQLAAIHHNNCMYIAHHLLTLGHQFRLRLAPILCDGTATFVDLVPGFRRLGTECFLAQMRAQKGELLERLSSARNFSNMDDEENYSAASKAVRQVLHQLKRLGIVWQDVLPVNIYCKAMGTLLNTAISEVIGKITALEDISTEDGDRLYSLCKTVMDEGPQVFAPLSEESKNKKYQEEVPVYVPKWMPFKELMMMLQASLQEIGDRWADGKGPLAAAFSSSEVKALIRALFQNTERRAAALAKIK
Assay: pull-down

B1: His-tagged human Chmp4c (natural protein, UniProt Q96CF2 1-233, looked up)
chain: MSKLGKFFKGGGSSKSRAAPSPQEALVRLRETEEMLGKKQEYLENRIQREIALAKKHGTQNKRAALQALKRKKRFEKQLTQIDGTLSTIEFQREALENSHTNTEVLRNMGFAAKAMKSVHENMDLNKIDDLMQEITEQQDIAQEISEAFSQRVGFGDDFDEDELMAELEELEQEELNKKMTNIRLPNVPSSSLPAQPNRKPGMSSTARRSRAASSQRAEEEDDDIKQLAAWAT
B1: binds.

— paper PMC5839794 (The Journal of Cell Biology, 2018)
